Assay results as given in IntAct's records for PubMed 29778605.

B1: Vacuolar protein sorting-associated protein 33B (Homo sapiens), Q9H267 (parent)
chain: MAFPHRPDAPELPDFSMLKRLARDQLIYLLEQLPGKKDLFIEADLMSPLDRIANVSILKQHEVDKLYKVENKPALSSNEQLCFLVRPRIKNMRYIASLVNADKLAGRTRKYKVIFSPQKFYACEMVLEEEGIYGDVSCDEWAFSLLPLDVDLLSMELPEFFRDYFLEGDQRWINTVAQALHLLSTLYGPFPNCYGIGRCAKMAYELWRNLEEEEDGETKGRRPEIGHIFLLDRDVDFVTALCSQVVYEGLVDDTFRIKCGSVDFGPEVTSSDKSLKVLLNAEDKVFNEIRNEHFSNVFGFLSQKARNLQAQYDRRRGMDIKQMKNFVSQELKGLKQEHRLLSLHIGACESIMKKKTKQDFQELIKTEHALLEGFNIRESTSYIEEHIDRQVSPIESLRLMCLLSITENGLIPKDYRSLKTQYLQSYGPEHLLTFSNLRRAGLLTEQAPGDTLTAVESKVSKLVTDKAAGKITDAFSSLAKRSNFRAISKKLNLIPRVDGEYDLKVPRDMAYVFGGAYVPLSCRIIEQVLERRSWQGLDEVVRLLNCSDFAFTDMTKEDKASSESLRLILVVFLGGCTFSEISALRFLGREKGYRFIFLTTAVTNSARLMEAMSEVKA
partner: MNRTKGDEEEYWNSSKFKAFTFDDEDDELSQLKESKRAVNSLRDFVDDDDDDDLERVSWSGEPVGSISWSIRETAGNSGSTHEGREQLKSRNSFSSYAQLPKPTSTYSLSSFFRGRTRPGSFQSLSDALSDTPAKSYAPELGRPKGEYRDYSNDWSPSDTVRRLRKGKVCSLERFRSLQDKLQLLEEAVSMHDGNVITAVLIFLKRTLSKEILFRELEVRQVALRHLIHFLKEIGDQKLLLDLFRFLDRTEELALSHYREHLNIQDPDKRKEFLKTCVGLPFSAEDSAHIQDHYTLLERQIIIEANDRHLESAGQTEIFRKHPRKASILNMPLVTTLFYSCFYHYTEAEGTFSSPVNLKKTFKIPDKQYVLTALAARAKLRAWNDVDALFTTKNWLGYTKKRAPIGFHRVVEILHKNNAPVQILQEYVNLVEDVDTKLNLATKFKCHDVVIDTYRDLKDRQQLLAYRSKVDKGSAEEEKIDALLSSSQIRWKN
B2: Vacuolar protein sorting-associated protein 33A (Homo sapiens), Q96AX1 (parent)
chain: MAAHLSYGRVNLNVLREAVRRELREFLDKCAGSKAIVWDEYLTGPFGLIAQYSLLKEHEVEKMFTLKGNRLPAADVKNIIFFVRPRLELMDIIAENVLSEDRRGPTRDFHILFVPRRSLLCEQRLKDLGVLGSFIHREEYSLDLIPFDGDLLSMESEGAFKECYLEGDQTSLYHAAKGLMTLQALYGTIPQIFGKGECARQVANMMIRMKREFTGSQNSIFPVFDNLLLLDRNVDLLTPLATQLTYEGLIDEIYGIQNSYVKLPPEKFAPKKQGDGGKDLPTEAKKLQLNSAEELYAEIRDKNFNAVGSVLSKKAKIISAAFEERHNAKTVGEIKQFVSQLPHMQAARGSLANHTSIAELIKDVTTSEDFFDKLTVEQEFMSGIDTDKVNNYIEDCIAQKHSLIKVLRLVCLQSVCNSGLKQKVLDYYKREILQTYGYEHILTLHNLEKAGLLKPQTGGRNNYPTIRKTLRLWMDDVNEQNPTDISYVYSGYAPLSVRLAQLLSRPGWRSIEEVLRILPGPHFEERQPLPTGLQKKRQPGENRVTLIFFLGGVTFAEIAALRFLSQLEDGGTEYVIATTKLMNGTSWIEALMEKPF
partner: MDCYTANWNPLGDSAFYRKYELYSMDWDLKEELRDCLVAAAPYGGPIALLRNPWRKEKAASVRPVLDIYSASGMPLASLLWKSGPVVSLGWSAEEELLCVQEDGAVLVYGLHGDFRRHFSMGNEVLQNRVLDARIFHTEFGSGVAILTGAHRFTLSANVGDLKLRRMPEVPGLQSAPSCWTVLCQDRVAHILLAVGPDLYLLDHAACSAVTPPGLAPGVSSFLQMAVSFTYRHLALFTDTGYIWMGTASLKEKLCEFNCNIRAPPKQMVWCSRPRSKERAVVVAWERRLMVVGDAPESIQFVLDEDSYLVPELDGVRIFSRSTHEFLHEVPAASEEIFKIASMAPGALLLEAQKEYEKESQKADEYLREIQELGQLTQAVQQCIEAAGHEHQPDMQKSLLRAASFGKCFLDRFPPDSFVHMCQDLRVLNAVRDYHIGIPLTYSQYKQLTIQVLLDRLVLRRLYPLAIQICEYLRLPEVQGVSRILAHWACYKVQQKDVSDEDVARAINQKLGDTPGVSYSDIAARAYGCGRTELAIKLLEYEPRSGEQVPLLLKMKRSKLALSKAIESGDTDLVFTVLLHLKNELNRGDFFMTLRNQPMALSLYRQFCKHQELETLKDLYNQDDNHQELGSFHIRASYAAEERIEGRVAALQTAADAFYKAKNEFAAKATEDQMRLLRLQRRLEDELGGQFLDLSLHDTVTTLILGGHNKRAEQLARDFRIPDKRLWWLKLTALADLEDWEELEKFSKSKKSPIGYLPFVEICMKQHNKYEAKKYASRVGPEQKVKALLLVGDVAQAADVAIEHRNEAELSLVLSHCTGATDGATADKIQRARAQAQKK

Variants of: B1
Details: with spe39_human VIPAS39, Q9H9C1

Row | Variant | effect of a mutation on the interaction
1 | K419D;L431K | disrupting interaction strength
2 | P428D;L431K | decreasing interaction strength

Variants of: B2
Details: with vps16_human VPS16, Q9H269

Row | Variant | effect of a mutation on the interaction
3 | Y438D;I441K | disrupting interaction strength
